Measurements: patent US20230407373A1 (priority 2020, published 2023)
Where two headings read alike, the source gives them in different places.

B1: SRSF7 (protein, UniProt Q16629 1-238, looked up)
Serine/arginine-rich splicing …: MSRYGRYGGETKVYVGNLGTGAGKGELERAFSYYGPLRTVWIARNPPGFAFVEFEDPRDAEDAVRGLDGKVICGSRVRVELSTGMPRRSRFDRPPARRPFDPNDRCYECGEKGHYAYDCHRYSRRRRSRSRSRSHSRSRGRRYSRSRSRSRGRRSRSASPRRSRSISLRRSRSASLRRSRSGSIKGSRYFQSPSRSRSRSRSISRPRSSRSKSRSPSPKRSRSPSGSPRRSASPERMD
B2: PABPC4: host protein, UniProt Q13310 (protein, UniProt Q13310 1-644, looked up)
Polyadenylate-binding protein …: MNAAASSYPMASLYVGDLHSDVTEAMLYEKFSPAGPVLSIRVCRDMITRRSLGYAYVNFQQPADAERALDTMNFDVIKGKPIRIMWSQRDPSLRKSGVGNVFIKNLDKSIDNKALYDTFSAFGNILSCKVVCDENGSKGYAFVHFETQEAADKAIEKMNGMLLNDRKVFVGRFKSRKEREAELGAKAKEFTNVYIKNFGEEVDDESLKELFSQFGKTLSVKVMRDPNGKSKGFGFVSYEKHEDANKAVEEMNGKEISGKIIFVGRAQKKVERQAELKRKFEQLKQERISRYQGVNLYIKNLDDTIDDEKLRKEFSPFGSITSAKVMLEDGRSKGFGFVCFSSPEEATKAVTEMNGRIVGSKPLYVALAQRKEERKAHLTNQYMQRVAGMRALPANAILNQFQPAAGGYFVPAVPQAQGRPPYYTPNQLAQMRPNPRWQQGGRPQGFQGMPSAIRQSGPRPTLRHLAPTGSECPDRLAMDFGGAGAAQQGLTDSCQSGGVPTAVQNLAPRAAVAAAAPRAVAPYKYASSVRSPHPAIQPLQAPQPAVHVQGQEPLTASMLAAAPPQEQKQMLGERLFPLIQTMHSNLAGKITGMLLEIDNSELLHMLESPESLRSKVDEAVAVLQAHHAKKEAAQKVGAVAAATS
B3: DDX17 (protein, UniProt Q92841 1-729, looked up)
Probable ATP-dependent RNA …: MPTGFVAPILCVLLPSPTREAATVASATGDSASERESAAPAAAPTAEAPPPSVVTRPEPQALPSPAIRAPLPDLYPFGTMRGGGFGDRDRDRDRGGFGARGGGGLPPKKFGNPGERLRKKKWDLSELPKFEKNFYVEHPEVARLTPYEVDELRRKKEITVRGGDVCPKPVFAFHHANFPQYVMDVLMDQHFTEPTPIQCQGFPLALSGRDMVGIAQTGSGKTLAYLLPAIVHINHQPYLERGDGPICLVLAPTRELAQQVQQVADDYGKCSRLKSTCIYGGAPKGPQIRDLERGVEICIATPGRLIDFLESGKTNLRRCTYLVLDEADRMLDMGFEPQIRKIVDQIRPDRQTLMWSATWPKEVRQLAEDFLRDYTQINVGNLELSANHNILQIVDVCMESEKDHKLIQLMEEIMAEKENKTIIFVETKRRCDDLTRRMRRDGWPAMCIHGDKSQPERDWVLNEFRSGKAPILIATDVASRGLDVEDVKFVINYDYPNSSEDYVHRIGRTARSTNKGTAYTFFTPGNLKQARELIKVLEEANQAINPKLMQLVDHRGGGGGGGGRSRYRTTSSANNPNLMYQDECDRRLRGVKDGGRRDSASYRDRSETDRAGYANGSGYGSPNSAFGAQAGQYTYGQGTYGAAAYGTSSYTAQEYGAGTYGASSTTSTGRSSQSSSQQFSGIGRSGQQPQPLMSQQFAQPPGATNMIGYMGQTAYQYPPPPPPPPPSRK
B4: MAP4 (protein, UniProt P27816 2-1152, looked up)
Microtubule-associated …: ADLSLADALTEPSPDIEGEIKRDFIATLEAEAFDDVVGETVGKTDYIPLLDVDEKTGNSESKKKPCSETSQIEDTPSSKPTLLANGGHGVEGSDTTGSPTEFLEEKMAYQEYPNSQNWPEDTNFCFQPEQVVDPIQTDPFKMYHDDDLADLVFPSSATADTSIFAGQNDPLKDSYGMSPCNTAVVPQGWSVEALNSPHSESFVSPEAVAEPPQPTAVPLELAKEIEMASEERPPAQALEIMMGLKTTDMAPSKETEMALAKDMALATKTEVALAKDMESPTKLDVTLAKDMQPSMESDMALVKDMELPTEKEVALVKDVRWPTETDVSSAKNVVLPTETEVAPAKDVTLLKETERASPIKMDLAPSKDMGPPKENKKETERASPIKMDLAPSKDMGPPKENKIVPAKDLVLLSEIEVAQANDIISSTEISSAEKVALSSETEVALARDMTLPPETNVILTKDKALPLEAEVAPVKDMAQLPETEIAPAKDVAPSTVKEVGLLKDMSPLSETEMALGKDVTPPPETEVVLIKNVCLPPEMEVALTEDQVPALKTEAPLAKDGVLTLANNVTPAKDVPPLSETEATPVPIKDMEIAQTQKGISEDSHLESLQDVGQSAAPTFMISPETVTGTGKKCSLPAEEDSVLEKLGERKPCNSQPSELSSETSGIARPEEGRPVVSGTGNDITTPPNKELPPSPEKKTKPLATTQPAKTSTSKAKTQPTSLPKQPAPTTIGGLNKKPMSLASGLVPAAPPKRPAVASARPSILPSKDVKPKPIADAKAPEKRASPSKPASAPASRSGSKSTQTVAKTTTAAAVASTGPSSRSPSTLLPKKPTAIKTEGKPAEVKKMTAKSVPADLSRPKSTSTSSMKKTTTLSGTAPAAGVVPSRVKATPMPSRPSTTPFIDKKPTSAKPSSTTPRLSRLATNTSAPDLKNVRSKVGSTENIKHQPGGGRAKVEKKTEAAATTRKPESNAVTKTAGPIASAQKQPAGKVQIVSKKVSYSHIQSKCGSKDNIKHVPGGGNVQIQNKKVDISKVSSKCGSKANIKHKPGGGDVKIESQKLNFKEKAQAKVGSLDNVGHLPAGGAVKTEGGGSEAPLCPGPPAGEEPAISEAAPEAGAPTSASGLNGHPTLSGGGDQREAQTLDSQIQETSI
B5: LRRC47: host protein, UniProt Q8N1G4 (protein, UniProt Q8N1G4 2-583, looked up)
Leucine-rich …: AAAAVSESWPELELAERERRRELLLTGPGLEERVRAAGGQLPPRLFTLPLLHYLEVSGCGSLRAPGPGLAQGLPQLHSLVLRRNALGPGLSPELGPLPALRVLDLSGNALEALPPGQGLGPAEPPGLPQLQSLNLSGNRLRELPADLARCAPRLQSLNLTGNCLDSFPAELFRPGALPLLSELAAADNCLRELSPDIAHLASLKTLDLSNNQLSEIPAELADCPKLKEINFRGNKLRDKRLEKMVSGCQTRSILEYLRVGGRGGGKGKGRAEGSEKEESRRKRRERKQRREGGDGEEQDVGDAGRLLLRVLHVSENPVPLTVRVSPEVRDVRPYIVGAVVRGMDLQPGNALKRFLTSQTKLHEDLCEKRTAATLATHELRAVKGPLLYCARPPQDLKIVPLGRKEAKAKELVRQLQLEAEEQRKQKKRQSVSGLHRYLHLLDGNENYPCLVDADGDVISFPPITNSEKTKVKKTTSDLFLEVTSATSLQICKDVMDALILKMAEMKKYTLENKEEGSLSDTEADAVSGQLPDPTTNPSAGKDGPSLLVVEQVRVVDLEGSLKVVYPSKADLATAPPHVTVVR
B6: MBNL1 (protein, UniProt Q9NR56 1-388, looked up)
Muscleblind-like protein 1: MAVSVTPIRDTKWLTLEVCREFQRGTCSRPDTECKFAHPSKSCQVENGRVIACFDSLKGRCSRENCKYLHPPPHLKTQLEINGRNNLIQQKNMAMLAQQMQLANAMMPGAPLQPVPMFSVAPSLATNASAAAFNPYLGPVSPSLVPAEILPTAPMLVTGNPGVPVPAAAAAAAQKLMRTDRLEVCREYQRGNCNRGENDCRFAHPADSTMIDTNDNTVTVCMDYIKGRCSREKCKYFHPPAHLQAKIKAAQYQVNQAAAAQAAATAAAMTQSAVKSLKRPLEATFDLGIPQAVLPPLPKRPALEKTNGATAVFNTGIFQYQQALANMQLQQHTAFLPPVPMVHGATPATVSAATTSATSVPFAATATANQIPIISAEHLTSHKYVTQM

Tests used:
Format in all cases: binding
[1] = tested on: SARS-CoV-2 gRNA and sgRNAs; conditions: for target (unweighted spectral count in RNP capture): Probe II capture, LC-MS/MS LFQ; for background (unweighted spectral count in control): no-probe control pull-down, used as background for Probe II
HCoV-OC43 gRNA and sgRNA = conditions: for target (spectral count) / background (spectral count): type s_36_m, Probe II; for target (spectral count): HCoV-OC43-infected HCT-8 cells; for background (spectral count): uninfected-probe control
SARS-CoV-2 gRNA = conditions: for target (unweighted spectral count of the protein in the RNP capture): LC-MS/MS, Probe I sample (first 199 lines of Table 2)
gRNA of HCoV-OC43 = tested on: gRNA of HCoV-OC43
[2] = 36 hpi, type n_36_v, tested against no-probe control, FDR<10%
[3] = OC43 Probe II, 24 hpi (type n_24_v), infected cells, tested against no-probe control
[4] = 24 hpi, type n_24_v, tested against no-probe control, FDR<10%
[5] = OC43 Probe II, 12 hpi (type n_12_v), infected cells, tested against no-probe control

| Molecule | target (unweighted spectral count in RNP capture) [1] | background (unweighted spectral count in control) [1] | target (unweighted spectral count of the protein in the RNP capture) (SARS-CoV-2 gRNA) | target (unweighted spectral count, OC43 Probe II capture) (HCoV-OC43 gRNA and sgRNA; [2]) | target (unweighted spectral count) (HCoV-OC43 gRNA and sgRNA; [3]) | target (spectral count) (HCoV-OC43 gRNA and sgRNA; 36 hpi) | background (spectral count) (HCoV-OC43 gRNA and sgRNA; 36 hpi) | target (unweighted spectral count, OC43 Probe II capture) (HCoV-OC43 gRNA and sgRNA; [4]) | target (unweighted spectral count) (HCoV-OC43 gRNA and sgRNA; [5]) | other results |
| --- | --- | --- | --- | --- | --- | --- | --- | --- | --- | --- |
| B1 | 16 | 1 | 21 | – | – | – | – | – | – | background (unweighted spectral count, no-probe control) (HCoV-OC43 gRNA and sgRNA): 4; target (unweighted spectral count) (HCoV-OC43 gRNA and sgRNA): 5; target (unweighted spectral count, OC43 Probe II capture) (HCoV-OC43 gRNA and sgRNA): 14; target (unweighted spectral count, OC43 Probe II) (HCoV-OC43 gRNA and sgRNA): 19 |
| B2 | – | – | – | 11 | 6 | 11 | 1 | – | – | enrichment in SARS-CoV-2 Probe II RNP capture [1]: found in the SARS-CoV-2 experiments; target (spectral count) (gRNA of HCoV-OC43; type g_36_m, HCoV-OC43-infected HCT-8 cells, 36 hpi, Probe I): 12; background (spectral count) (gRNA of HCoV-OC43; type g_36_m, uninfected-probe control, 36 hpi, Probe I): 2; target (spectral count, OC43 Probe I RNP capture) (gRNA of HCoV-OC43; type n_48_v: 48 hours post-infection, infected cells, OC43 Probe I, unweighted spectral count): 11; background (spectral count, no-probe control) (gRNA of HCoV-OC43; type n_48_v: 48 hours post-infection, no-probe control on infected cells): 1; target (unweighted spectral count, OC43 Probe II) (HCoV-OC43 gRNA and sgRNA; type n_48_v, 48 hpi, OC43 Probe II capture on infected cells): 11; background (unweighted spectral count, no-probe control) (HCoV-OC43 gRNA and sgRNA; type n_48_v, 48 hpi, no-probe control on infected cells): 1; enrichment in SARS-CoV-2 Probe I RNP capture (SARS-CoV-2 gRNA): found in the SARS-CoV-2 experiments |
| B3 | 15 | 1 | 24 | 17 | 9 | – | – | – | – | – |
| B4 | – | 1 | 14 | – | – | – | – | 8 | 5 | target (unweighted spectral count, OC43 Probe II) (HCoV-OC43 gRNA and sgRNA; type n_36_v, 36 hpi, OC43 Probe II capture on infected cells): 11; background (unweighted spectral count, no-probe control) (HCoV-OC43 gRNA and sgRNA; type n_36_v, 36 hpi, no-probe control on infected cells): 4 |
| B5 | 13 | 1 | 14 | – | – | 7 | 1 | 4 | – | – |
| B6 | 32 | 1 | 19 | – | – | – | – | – | 5 | – |
